Results: publication PMC9482650, “Quantitative fragmentomics allow affinity mapping of interactomes” (Nature Communications, 2022)

T1: SNTG2, Q9NY99
T1 sequence (Q9NY99 68-166, limits assumed, looked up): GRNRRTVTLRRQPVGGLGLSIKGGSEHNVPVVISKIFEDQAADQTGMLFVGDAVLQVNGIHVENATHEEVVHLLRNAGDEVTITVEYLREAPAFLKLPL

T2: PTPN13_1, Q12923
T2 sequence (Q12923 1088-1188, limits assumed, looked up): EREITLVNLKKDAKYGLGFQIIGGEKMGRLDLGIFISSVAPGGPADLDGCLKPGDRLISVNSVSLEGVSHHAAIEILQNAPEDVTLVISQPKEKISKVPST

T3: PDZD7_3, Q9H5P4
T3 sequence (Q9H5P4 857-944, limits assumed, looked up): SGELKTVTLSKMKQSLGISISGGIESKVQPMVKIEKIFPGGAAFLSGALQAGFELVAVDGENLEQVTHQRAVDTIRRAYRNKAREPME

T4: PARD3B_1, Q8TEW8
T4 sequence (Q8TEW8 196-299, limits assumed, looked up): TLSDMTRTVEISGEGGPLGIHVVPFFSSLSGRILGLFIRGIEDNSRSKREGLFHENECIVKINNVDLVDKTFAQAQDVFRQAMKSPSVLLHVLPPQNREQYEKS

T5: MPP2, Q14168
T5 sequence (Q14168 180-250, limits assumed, looked up): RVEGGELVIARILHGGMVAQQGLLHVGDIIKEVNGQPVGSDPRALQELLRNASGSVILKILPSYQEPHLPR

T6: SHANK1, Q9Y566
T6 sequence (Q9Y566 658-767, limits assumed, looked up): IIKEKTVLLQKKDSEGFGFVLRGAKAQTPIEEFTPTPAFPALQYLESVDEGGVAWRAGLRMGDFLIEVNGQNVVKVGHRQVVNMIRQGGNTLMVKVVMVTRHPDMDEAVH

T7: SIPA1L2, Q9P2F8
T7 sequence (Q9P2F8 945-1036, limits assumed, looked up): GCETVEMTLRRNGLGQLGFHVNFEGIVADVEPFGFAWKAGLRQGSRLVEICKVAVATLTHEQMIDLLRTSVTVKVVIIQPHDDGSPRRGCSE

T8: DFNB31_1, Q9P202
T8 sequence (Q9P202 135-233, limits assumed, looked up): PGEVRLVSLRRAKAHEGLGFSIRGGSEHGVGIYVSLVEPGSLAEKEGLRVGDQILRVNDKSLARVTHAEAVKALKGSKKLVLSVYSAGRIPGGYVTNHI

T9: GRIP1_4, Q9Y3R0
T9 sequence (Q9Y3R0 467-571, limits assumed, looked up): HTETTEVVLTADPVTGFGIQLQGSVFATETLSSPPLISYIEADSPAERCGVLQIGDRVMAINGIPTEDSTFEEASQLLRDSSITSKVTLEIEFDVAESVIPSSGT

T10: DLG3_3, Q92796
T10 sequence (Q92796 374-475, limits assumed, looked up): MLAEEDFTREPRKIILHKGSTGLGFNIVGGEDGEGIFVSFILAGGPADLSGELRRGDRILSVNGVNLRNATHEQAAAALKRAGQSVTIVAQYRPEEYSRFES

T11: LNX2_2, Q8N448
T11 sequence (Q8N448 334-432, limits assumed, looked up): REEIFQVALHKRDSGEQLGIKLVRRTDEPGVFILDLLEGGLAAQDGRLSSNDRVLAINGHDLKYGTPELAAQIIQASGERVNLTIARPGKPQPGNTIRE

B1: ACOT8, O14734 (peptide)
chain: VKPQVSESKL
B2: CLDN2, P57739 (peptide)
chain: FNSYSLTGYV
B3: SDC4, P31431 (peptide)
chain: KKAPTNEFYA

Molecular target: T1, SNTG2, Q9NY99
Assay: holdup assay
Parameters: key: below the threshold = too weak to quantify, mostly under pKd 3.1 to 4
Conditions: plain residues with an end cap or a label only (N-terminal biotin on a linker: ado-ado)

Binder | pKd
B1 | 4.19
B2 | below the threshold
B3 | below the threshold

Molecular target: NHERF4_1, Q86UT5-2
Assay: holdup assay
Parameters: key: below the threshold = too weak to quantify, mostly under pKd 3.1 to 4
Conditions: plain residues with an end cap or a label only (N-terminal biotin on a linker: ado-ado)

Sequence of NHERF4_1, Q86UT5-2 (Q86UT5 other isoform, or with tags, fused parts or gaps): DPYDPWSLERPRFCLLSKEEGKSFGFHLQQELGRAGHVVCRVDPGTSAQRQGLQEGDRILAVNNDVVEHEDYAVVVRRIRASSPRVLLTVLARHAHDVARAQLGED

Binder | pKd
B1 | 3.78
B2 | 3.9
B3 | below the threshold

Molecular target: GRASP, Q7Z6J2
Assay: holdup assay
Parameters: key: below the threshold = too weak to quantify, mostly under pKd 3.1 to 4
Conditions: plain residues with an end cap or a label only (N-terminal biotin on a linker: ado-ado)

Sequence of GRASP, Q7Z6J2 (Q7Z6J2 96-193): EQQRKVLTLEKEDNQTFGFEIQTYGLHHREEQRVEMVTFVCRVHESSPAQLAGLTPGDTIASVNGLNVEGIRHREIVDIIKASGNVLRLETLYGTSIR

Binder | pKd
B1 | below the threshold
B2 | 3.82
B3 | below the threshold

Molecular target: T2, PTPN13_1, Q12923
Assay: holdup assay
Parameters: key: below the threshold = too weak to quantify, mostly under pKd 3.1 to 4
Conditions: plain residues with an end cap or a label only (N-terminal biotin on a linker: ado-ado)

Binder | pKd
B1 | below the threshold
B2 | below the threshold
B3 | below the threshold

Molecular target: T3, PDZD7_3, Q9H5P4
Assay: holdup assay
Parameters: key: below the threshold = too weak to quantify, mostly under pKd 3.1 to 4
Conditions: plain residues with an end cap or a label only (N-terminal biotin on a linker: ado-ado)

Binder | pKd
B1 | 4.15
B2 | below the threshold
B3 | below the threshold

Molecular target: MAGI2_6, Q86UL8
Assay: holdup assay
Parameters: key: below the threshold = too weak to quantify, mostly under pKd 3.1 to 4
Conditions: plain residues with an end cap or a label only (N-terminal biotin on a linker: ado-ado)

Sequence of MAGI2_6, Q86UL8 (Q86UL8 1141-1229): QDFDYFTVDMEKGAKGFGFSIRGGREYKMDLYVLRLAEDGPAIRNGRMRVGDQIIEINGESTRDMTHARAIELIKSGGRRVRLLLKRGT

Binder | pKd
B1 | below the threshold
B2 | 3.72
B3 | below the threshold

Molecular target: NHERF2_2, Q15599
Assay: holdup assay
Parameters: key: below the threshold = too weak to quantify, mostly under pKd 3.1 to 4
Conditions: plain residues with an end cap or a label only (N-terminal biotin on a linker: ado-ado)

Sequence of NHERF2_2, Q15599 (Q15599 142-238): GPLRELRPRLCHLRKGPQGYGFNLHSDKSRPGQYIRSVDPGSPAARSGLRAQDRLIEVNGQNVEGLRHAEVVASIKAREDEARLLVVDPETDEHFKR

Binder | pKd
B1 | 4.56
B2 | below the threshold
B3 | below the threshold

Molecular target: LNX1_1, Q8TBB1
Assay: holdup assay
Parameters: key: below the threshold = too weak to quantify, mostly under pKd 3.1 to 4
Conditions: plain residues with an end cap or a label only (N-terminal biotin on a linker: ado-ado)

Sequence of LNX1_1, Q8TBB1 (Q8TBB1 261-371): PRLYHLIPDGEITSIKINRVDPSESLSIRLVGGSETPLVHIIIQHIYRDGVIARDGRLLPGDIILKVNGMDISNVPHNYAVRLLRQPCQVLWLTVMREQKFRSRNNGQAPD

Binder | pKd
B1 | below the threshold
B2 | 3.94
B3 | below the threshold

Molecular target: T4, PARD3B_1, Q8TEW8
Assay: holdup assay
Parameters: key: below the threshold = too weak to quantify, mostly under pKd 3.1 to 4
Conditions: plain residues with an end cap or a label only (N-terminal biotin on a linker: ado-ado)

Binder | pKd
B1 | 3.69
B2 | 4.42
B3 | 4.52

Molecular target: T5, MPP2, Q14168
Assay: holdup assay
Parameters: key: below the threshold = too weak to quantify, mostly under pKd 3.1 to 4
Conditions: plain residues with an end cap or a label only (N-terminal biotin on a linker: ado-ado)

Binder | pKd
B1 | below the threshold
B2 | below the threshold
B3 | below the threshold

Molecular target: ARHGEF12, Q9NZN5-2
Assay: holdup assay
Parameters: key: below the threshold = too weak to quantify, mostly under pKd 3.1 to 4
Conditions: plain residues with an end cap or a label only (N-terminal biotin on a linker: ado-ado)

Sequence of ARHGEF12, Q9NZN5-2 (Q9NZN5 other isoform, or with tags, fused parts or gaps): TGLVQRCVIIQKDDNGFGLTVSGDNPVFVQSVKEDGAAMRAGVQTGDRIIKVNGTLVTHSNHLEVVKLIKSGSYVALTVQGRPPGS

Binder | pKd
B1 | 4.03
B2 | 3.84
B3 | below the threshold

Molecular target: NHERF4_2, Q86UT5
Assay: holdup assay
Parameters: key: below the threshold = too weak to quantify, mostly under pKd 3.1 to 4
Conditions: plain residues with an end cap or a label only (N-terminal biotin on a linker: ado-ado)

Sequence of NHERF4_2, Q86UT5 (Q86UT5 220-308): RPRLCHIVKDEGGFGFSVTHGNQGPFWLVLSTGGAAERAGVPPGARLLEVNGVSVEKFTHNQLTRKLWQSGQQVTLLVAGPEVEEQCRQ

Binder | pKd
B1 | below the threshold
B2 | below the threshold
B3 | below the threshold

Molecular target: SCRIB_3, Q14160
Assay: holdup assay
Parameters: key: below the threshold = too weak to quantify, mostly under pKd 3.1 to 4
Conditions: plain residues with an end cap or a label only (N-terminal biotin on a linker: ado-ado)

Sequence of SCRIB_3, Q14160 (Q14160 999-1103): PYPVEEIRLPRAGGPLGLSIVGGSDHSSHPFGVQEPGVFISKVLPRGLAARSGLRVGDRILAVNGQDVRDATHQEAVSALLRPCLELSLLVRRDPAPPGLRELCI

Binder | pKd
B1 | 4.24
B2 | 3.53
B3 | below the threshold

Molecular target: T6, SHANK1, Q9Y566
Assay: holdup assay
Parameters: key: below the threshold = too weak to quantify, mostly under pKd 3.1 to 4
Conditions: plain residues with an end cap or a label only (N-terminal biotin on a linker: ado-ado)

Binder | pKd
B1 | 4.01
B2 | below the threshold
B3 | below the threshold

Molecular target: Inadl_9, Q8NI35
Assay: holdup assay
Parameters: key: below the threshold = too weak to quantify, mostly under pKd 3.1 to 4
Conditions: plain residues with an end cap or a label only (N-terminal biotin on a linker: ado-ado)

Sequence of Inadl_9, Q8NI35 (Q8NI35 1530-1615): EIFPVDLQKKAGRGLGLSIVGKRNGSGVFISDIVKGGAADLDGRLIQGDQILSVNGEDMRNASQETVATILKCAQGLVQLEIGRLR

Binder | pKd
B1 | below the threshold
B2 | below the threshold
B3 | below the threshold

Molecular target: LDB3, O75112
Assay: holdup assay
Parameters: key: below the threshold = too weak to quantify, mostly under pKd 3.1 to 4
Conditions: plain residues with an end cap or a label only (N-terminal biotin on a linker: ado-ado)

Sequence of LDB3, O75112 (O75112 1-94): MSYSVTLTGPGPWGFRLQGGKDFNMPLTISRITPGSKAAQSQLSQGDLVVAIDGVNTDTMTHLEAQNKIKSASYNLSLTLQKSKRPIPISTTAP

Binder | pKd
B1 | 3.6
B2 | below the threshold
B3 | below the threshold

Molecular target: T7, SIPA1L2, Q9P2F8
Assay: holdup assay
Parameters: key: below the threshold = too weak to quantify, mostly under pKd 3.1 to 4
Conditions: plain residues with an end cap or a label only (N-terminal biotin on a linker: ado-ado)

Binder | pKd
B1 | below the threshold
B2 | 3.5
B3 | below the threshold

Molecular target: GRID2IP_2, A4D2P6
Assay: holdup assay
Parameters: key: below the threshold = too weak to quantify, mostly under pKd 3.1 to 4
Conditions: plain residues with an end cap or a label only (N-terminal biotin on a linker: ado-ado)

Sequence of GRID2IP_2, A4D2P6 (A4D2P6 272-370): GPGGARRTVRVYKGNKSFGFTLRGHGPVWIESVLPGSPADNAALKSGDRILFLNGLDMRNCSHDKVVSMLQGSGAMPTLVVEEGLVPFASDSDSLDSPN

Binder | pKd
B1 | 3.55
B2 | 3.68
B3 | below the threshold

Molecular target: T8, DFNB31_1, Q9P202
Assay: holdup assay
Parameters: key: below the threshold = too weak to quantify, mostly under pKd 3.1 to 4
Conditions: plain residues with an end cap or a label only (N-terminal biotin on a linker: ado-ado)

Binder | pKd
B1 | 4.29
B2 | below the threshold
B3 | below the threshold

Molecular target: T9, GRIP1_4, Q9Y3R0
Assay: holdup assay
Parameters: key: below the threshold = too weak to quantify, mostly under pKd 3.1 to 4
Conditions: plain residues with an end cap or a label only (N-terminal biotin on a linker: ado-ado)

Binder | pKd
B1 | below the threshold
B2 | below the threshold
B3 | below the threshold

Molecular target: T10, DLG3_3, Q92796
Assay: holdup assay
Parameters: key: below the threshold = too weak to quantify, mostly under pKd 3.1 to 4
Conditions: plain residues with an end cap or a label only (N-terminal biotin on a linker: ado-ado)

Binder | pKd
B1 | below the threshold
B2 | below the threshold
B3 | below the threshold

Molecular target: MAGI1_1, Q96QZ7
Assay: holdup assay
Parameters: key: below the threshold = too weak to quantify, mostly under pKd 3.1 to 4
Conditions: plain residues with an end cap or a label only (N-terminal biotin on a linker: ado-ado)

Sequence of MAGI1_1, Q96QZ7 (Q96QZ7 1-106): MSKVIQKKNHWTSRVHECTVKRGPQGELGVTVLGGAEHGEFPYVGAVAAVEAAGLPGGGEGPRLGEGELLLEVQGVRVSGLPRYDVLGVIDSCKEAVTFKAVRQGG

Binder | pKd
B1 | below the threshold
B2 | below the threshold
B3 | below the threshold

Molecular target: IL16_1, Q14005
Assay: holdup assay
Parameters: key: below the threshold = too weak to quantify, mostly under pKd 3.1 to 4
Conditions: plain residues with an end cap or a label only (N-terminal biotin on a linker: ado-ado)

Sequence of IL16_1, Q14005 (Q14005 210-306): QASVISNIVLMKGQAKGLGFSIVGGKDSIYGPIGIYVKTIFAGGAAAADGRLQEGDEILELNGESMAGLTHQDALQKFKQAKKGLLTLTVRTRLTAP

Binder | pKd
B1 | below the threshold
B2 | 3.8
B3 | below the threshold

Molecular target: T11, LNX2_2, Q8N448
Assay: holdup assay
Parameters: key: below the threshold = too weak to quantify, mostly under pKd 3.1 to 4
Conditions: plain residues with an end cap or a label only (N-terminal biotin on a linker: ado-ado)

Binder | pKd
B1 | below the threshold
B2 | 4.98
B3 | below the threshold

Molecular target: FRMPD4, Q14CM0
Assay: holdup assay
Parameters: key: below the threshold = too weak to quantify, mostly under pKd 3.1 to 4
Conditions: plain residues with an end cap or a label only (N-terminal biotin on a linker: ado-ado)

Sequence of FRMPD4, Q14CM0 (Q14CM0 67-160): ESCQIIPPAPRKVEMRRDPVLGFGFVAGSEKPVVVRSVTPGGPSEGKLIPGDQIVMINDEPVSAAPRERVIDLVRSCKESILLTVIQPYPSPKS

Binder | pKd
B1 | 3.8
B2 | below the threshold
B3 | 3.49

Molecular target: CASK, O14936
Assay: holdup assay
Parameters: key: below the threshold = too weak to quantify, mostly under pKd 3.1 to 4
Conditions: plain residues with an end cap or a label only (N-terminal biotin on a linker: ado-ado)

Sequence of CASK, O14936 (O14936 487-570): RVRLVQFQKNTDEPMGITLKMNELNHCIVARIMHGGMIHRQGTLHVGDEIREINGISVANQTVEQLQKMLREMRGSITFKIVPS

Binder | pKd
B1 | below the threshold
B2 | below the threshold
B3 | below the threshold
